Experimental findings from patent US20190315855 (published 2019) are described below.

Where a chain is given by its changes, count along the chain named. Bounds are passed on as bounds.

Test [1] concerns the target T1, mouse DLL4 (cell surface) (mouse, UniProt Q9JI71).
T1 chain: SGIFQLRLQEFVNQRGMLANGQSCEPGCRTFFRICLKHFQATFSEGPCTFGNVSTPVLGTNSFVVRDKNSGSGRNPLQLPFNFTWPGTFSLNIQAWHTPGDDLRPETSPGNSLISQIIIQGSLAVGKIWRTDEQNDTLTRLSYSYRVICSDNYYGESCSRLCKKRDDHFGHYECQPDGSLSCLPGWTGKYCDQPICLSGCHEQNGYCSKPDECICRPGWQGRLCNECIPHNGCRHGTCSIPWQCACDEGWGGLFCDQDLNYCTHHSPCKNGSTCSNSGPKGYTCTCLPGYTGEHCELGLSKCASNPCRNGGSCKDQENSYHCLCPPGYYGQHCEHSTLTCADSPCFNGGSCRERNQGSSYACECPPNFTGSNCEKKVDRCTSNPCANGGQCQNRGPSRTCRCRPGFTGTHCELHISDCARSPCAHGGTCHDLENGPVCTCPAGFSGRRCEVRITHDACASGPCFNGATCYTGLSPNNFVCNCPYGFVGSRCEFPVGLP
The test is described as follows: FACS.

Test [2] concerns the target human DLL4 (cell surface) (human). Briefly: FACS. On the technique in general: Flow cytometry measures light scatter and fluorescence of single cells or particles in a stream.
In the next test the target is T2, mouse DLL4 ECD (mouse, UniProt Q9JI71).
T2 chain: T1 chain
Briefly: SPR. On the technique in general: Surface plasmon resonance follows binding to a sensor surface in real time, without labels.

The target of another test is human DLL4 ECD (human). The test is described as follows: competition ELISA. On the technique in general: ELISA stands for enzyme-linked immunosorbent assay.
Sequence of human DLL4 ECD (human) (chain, as listed by the source): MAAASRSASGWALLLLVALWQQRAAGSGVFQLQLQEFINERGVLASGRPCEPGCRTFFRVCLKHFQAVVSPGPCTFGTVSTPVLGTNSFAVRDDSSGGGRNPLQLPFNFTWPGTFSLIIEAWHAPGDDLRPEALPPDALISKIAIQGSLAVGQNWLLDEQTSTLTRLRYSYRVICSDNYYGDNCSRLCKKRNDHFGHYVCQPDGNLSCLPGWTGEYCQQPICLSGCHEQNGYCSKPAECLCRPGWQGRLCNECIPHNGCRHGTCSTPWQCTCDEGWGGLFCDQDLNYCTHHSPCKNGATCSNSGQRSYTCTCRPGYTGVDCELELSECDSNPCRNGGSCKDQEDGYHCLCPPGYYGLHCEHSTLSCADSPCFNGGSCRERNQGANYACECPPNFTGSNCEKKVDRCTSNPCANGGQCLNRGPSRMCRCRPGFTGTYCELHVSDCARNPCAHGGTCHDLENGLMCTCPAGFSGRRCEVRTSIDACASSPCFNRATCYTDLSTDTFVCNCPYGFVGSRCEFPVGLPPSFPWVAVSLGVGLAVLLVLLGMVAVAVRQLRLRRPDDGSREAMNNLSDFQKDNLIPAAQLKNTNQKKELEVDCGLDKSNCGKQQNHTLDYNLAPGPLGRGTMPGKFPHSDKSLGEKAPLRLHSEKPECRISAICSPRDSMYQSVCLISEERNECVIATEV

Sequence of human DLL4 (cell surface) (human) (chain, as listed by the source): as above

B1: 14G1 rat mAb (antibody, V domains shown)
VH: EVQLQQSGAELAKPGSSVKISCKASGYTFTNYDISWIKQTNGQGLEYLGYINTGSGGIYSNEKFKGKATLTVDKSSNTAFMQLSSLTPEDTAVYYCVREGNNFDHWGQGVKVTVSS
VL: DTVMTQSPASMSTSVGERVTVNCKASQSVGTIVAWFQQKPGQSPKRLIYLATYRHTGVPDRFIGSGFGRDFTLTISNVEAEDLAVYYCLQYGSRPFTFGAGTKLEIKR
Regarding B1, the concentration for a half-maximal effect (EC50) (commonly the concentration giving half of the maximal effect) in test [1] is more than 50.9 nM.

B2: 14A11 rat mAb (antibody, V domains shown)
VH: EVQLQQSGPELAKPGSSVKISCKASGYTFTNSYISWIKQTTGQGLEYVGYINTGSGGADYNEKFKGKATLTVDKSSRTAFMQLSSLTPGDSAVYYCAKSILLGSTCYFDYWGQGVLVTVSS
VL: NTVLTQSPALAVSLGQRVTISCKASRSVSSPMYSYIYWYQQKPGQQPKLLIYRASTLASGVPARFSGSGSGTDFTLNIDPVEADDIATYFCQQSWSDPFTFGSGTKLEIKR
Consider B2, for which the EC50 in test [2] is more than 50.9 nM.

B3: h1A11.A12 (antibody, V domains shown)
VH: EVQLVESGGGLVQPGGSLRLSCAASGFTFSNFPMAWVRQAPGKGLEWVATISSSDGTTYYRDSVKGRFTISRDNAKNSLYLQMNSLRAEDTAVYYCARGYYNSPFAYWGQGTLVTVSS
VL: DIQMTQSPSSLSASVGDRVTITCRASQDIYYNLAWYQQKPGKSPKLLIFDTSSLADGVPSRFSGSGSGTDFTLTISSLQPEDFATYFCQQYDWYPPTFGQGTKLEIK
On to B3, for which the equilibrium dissociation constant (Kd) – broadly, a measure of binding affinity in units of concentration – in the test with mouse DLL4 ECD amounted to 16 nM.

B4: h1A11.A7 (antibody, V domains shown)
VH: B3 VH
VL: B3 VL with Y31I, S43A, S53D, F87Y, W93Y
B4: the Kd in the test with mouse DLL4 ECD is 13 nM.

B5: h38H12.9 (antibody, V domains shown)
VH: EVQLVESGGGVVQPGRSLRLSCAASGFTFSNYGMYWVRQAPGKGLEWVAFISHGGGITYYRDSVKGRFTISRDNSKNTLYLQMNSLRAEDTAVYYCAALNWELGIDYWGQGTMVTVSS
VL: DIQMTQSPSSLSASVGDRVTITCRASEDIYSNLAWYQQKPGKAPKLLIYAANRLQDGVPSRFSGSGSGTDFTLTISSLQPEDFATYYCLQGSKFPLTFGQGTKLEIKR
For B5, in the test with human DLL4 ECD, the half-maximal inhibitory concentration (IC50) (commonly the concentration needed to halve the response being measured) came to 4.16 nM.

B6: h38H12.7 (antibody, V domains shown)
VH: B5 VH with V37I, N77S, Y95H
VL: B5 VL with F71Y
As to B6, in the test with human DLL4 ECD, the IC50 worked out at 12.5 nM.

B7: h38H12.13 (antibody, V domains shown)
VH: B5 VH with V11L, R16G, V37I, N77S, Y95H
VL: B5 VL
With B7, the IC50 in the test with human DLL4 ECD stood at 5.29 nM.

B8: h38H12.12 (antibody, V domains shown)
VH: B5 VH
VL: EIVMTQSPATLSVSPGERATLSCRASEDIYSNLAWYQKKPGQSPRLLIYAANRLQDGVPARFSGSGSGTEYTLTISSLQSEDFAVYFCLQGSKFPLTFGQGTKLEIKR
In turn, B8 registered a half-maximal inhibitory concentration (IC50) in the test with human DLL4 ECD of 3.23 nM.

B9: h38H12.11 (antibody, V domains shown)
VH: B5 VH
VL: B5 VL with F71Y
In the test with human DLL4 ECD, B9 came in with an IC50 of 3.8 nM.

B10: h38H12.5 (antibody, V domains shown)
VH: B5 VH with V37I, N77S, Y95H
VL: B5 VL
In the case of B10, in the test with human DLL4 ECD, the IC50 turned out to be 14.8 nM.

B11: h38H12.16 (antibody, V domains shown)
VH: B5 VH with V11L, R16G, V37I, N77S, Y95H
VL: B8 VL
For B11, the IC50 in the test with human DLL4 ECD came to 3.77 nM.

B12: h38H12.10 (antibody, V domains shown)
VH: B5 VH
VL: B5 VL with Q38K, A43S, F71Y, Y87F
In the test with human DLL4 ECD, B12 had an IC50 of 3.9 nM.

B13: h38H12.15 (antibody, V domains shown)
VH: B5 VH with V11L, R16G, V37I, N77S, Y95H
VL: B5 VL with F71Y
The molecule B13 gave a 50% inhibitory concentration (IC50) in the test with human DLL4 ECD of 5.71 nM.

B14: h38H12.14 (antibody, V domains shown)
VH: B5 VH with V11L, R16G, V37I, N77S, Y95H
VL: B5 VL with Q38K, A43S, F71Y, Y87F
As to B14, the half-inhibitory concentration (IC50) with human DLL4 ECD is 5.84 nM.

B15: h38H12.6 (antibody, V domains shown)
VH: B5 VH with V37I, N77S, Y95H
VL: B5 VL with Q38K, A43S, F71Y, Y87F
B15: the IC50 in the test with human DLL4 ECD stood at 27 nM.

B16: h38H12.8 (antibody, V domains shown)
VH: B5 VH with V37I, N77S, Y95H
VL: B8 VL
In the test with human DLL4 ECD, B16 registered an IC50 of 8.31 nM.
